According to publication doi:10.1101/2025.09.14.676084, “A validated antibody toolbox for ALS research” (bioRxiv, 2025):

Biological target: T1, PFN1 (Homo sapiens (assumed; ALS risk gene …, UniProt P07737)
T1 construct: PFN1, the protein encoded by the ALS risk gene PFN1; Surmised: endogenous protein in the lysate of a human cell line, as in the YCharOS workflow; also called profilin-1 (protein encoded by the ALS risk gene PFN1)
Experiment: immunoprecipitation, detected by immunoblot; the antibody was used to immunoprecipitate its target; counted as successful when the target protein was specifically enriched relative to the starting material, confirmed by immunoblot of the immunoprecipitated protein
Details: one partner purified

T1 sequence (P07737 whole entry): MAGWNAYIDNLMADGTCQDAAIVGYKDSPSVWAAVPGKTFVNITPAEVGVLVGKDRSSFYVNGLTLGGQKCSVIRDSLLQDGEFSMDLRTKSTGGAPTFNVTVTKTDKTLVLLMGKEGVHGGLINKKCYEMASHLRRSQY

B1: scFv against PFN1 (recombinant single-chain variable fragment antibody generated by the Structural Genomics Consortium) (scFv, V domains shown)
VH: EVQLLESGGGLVQPGGSLRLSCAASGFTFYSSYMYWVRQAPGKGLEWVSSISGYGGYTYYADSVKGRFTISRDNSKNTLYLQMNSLRAEDTAVYYCARWDGYMDYWGQGTLVTVSS
VL: DIQMTQSPSSLSASVGDRVTITCRASQSISSYLNWYQQKPGKAPKLLIYAASSLQSGVPSRFSGSGSGTDFTLTISSLQPEDFATYYCQQYWDYGLPTFGQGTKLEIK
notes: selected by phage display against recombinant biotinylated antigen; plasmid deposited at Addgene (id not given); also called the scFv against PFN1; custom scFv antibody
  binding result: binds
